# Measurements reported in patent US20240092941A1 (FRED HUTCHINSON CANCER CENTER, published 2024).
# Target: T1, soluble ROR1 ectodomain (UniProt Q01973 30-406, limits assumed)
# T1 construct: extracellular domain
# Test: method not stated in the legend of FIG. 1
# T1 sequence (Q01973 30-406 limits assumed): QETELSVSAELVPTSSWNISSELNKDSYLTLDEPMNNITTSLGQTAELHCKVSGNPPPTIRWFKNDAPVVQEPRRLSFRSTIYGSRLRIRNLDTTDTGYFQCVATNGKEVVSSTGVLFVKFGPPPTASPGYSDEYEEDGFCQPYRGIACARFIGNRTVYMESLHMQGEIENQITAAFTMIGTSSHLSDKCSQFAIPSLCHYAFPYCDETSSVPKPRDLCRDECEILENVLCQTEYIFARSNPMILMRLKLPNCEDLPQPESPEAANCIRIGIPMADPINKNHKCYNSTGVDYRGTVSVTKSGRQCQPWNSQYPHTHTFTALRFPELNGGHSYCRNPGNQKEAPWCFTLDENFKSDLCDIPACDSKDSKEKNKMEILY
row,Binder,Kd [nM]
1,Nb11 WT (VHH) VHH: QVKLVQSGGGLVQAGGSLRLSCAASGSIFSSASMGWYRQAPGKPREQVASITRDGNTYYEDDVKGRFTISRDNARSTGYLQMNSLTPEDTGVYYCNVYQLGFYDKWGQGTQVIVSS,2
2,Nb14 WT (VHH) VHH: QVKLVQSGGGLVQTGGSLRLSCAASEITFDMYSMGWYREAPGKARDAVASITNRGNTYYADSVKGRFTISRDNAKKTMYLQMNSLKPEDTAVYYCNVYRTGFSDYWGQGTQVTVSS,2
